In US20220235138A1, “CAR-T CELLS TARGETING IL-1RAP AND THEIR USE IN ACUTE MYELOID LEUKEMIA (AML)” (ETABLISSEMENT FRANCAIS DU SANG, priority 2019, published 2022):

Columns and labels:
[1] = test system: AML blasts; experiment: Flow cytometry on primary cells from AML patients; format: cell-based, human; conditions: all subtypes, n=30
Text: FIG. 3: Flow cytometry-gating strategy on AML primary samples of patients. RFI is provided for blasts and monocytes subpopulations (Left). Percentage of IL-1RAP+ within AML blasts and monocytes, CD123+ and IL-1RAP+/CD123+ cells within AML Blasts in a cohort of routine AML (all subtypes) patients (n=30) (Right, up). RFI is also provided (Right, bottom).
For primary samples of bone marrow or peripheral bloods of AML patients, the murine IL-1RAP mAb (#E3C3) was included in a panel allowing to detect CD45, CD34, CD38, CD33, CD123, and CD14 (for monocytes). Stained cells were collected by a CANTO II cytometer (BD Biosciences, Le Pont-de-Claix, France) and analyzed by DIVA 6.1 software (BD Biosciences, Le Pont-de-Claix, France).

[2] = test system: IL-1RAP; experiment: Western blotting and cell surface staining of AML cell lines; format: binding, human
Sequence of IL-1RAP (Q9NPH3 21-570): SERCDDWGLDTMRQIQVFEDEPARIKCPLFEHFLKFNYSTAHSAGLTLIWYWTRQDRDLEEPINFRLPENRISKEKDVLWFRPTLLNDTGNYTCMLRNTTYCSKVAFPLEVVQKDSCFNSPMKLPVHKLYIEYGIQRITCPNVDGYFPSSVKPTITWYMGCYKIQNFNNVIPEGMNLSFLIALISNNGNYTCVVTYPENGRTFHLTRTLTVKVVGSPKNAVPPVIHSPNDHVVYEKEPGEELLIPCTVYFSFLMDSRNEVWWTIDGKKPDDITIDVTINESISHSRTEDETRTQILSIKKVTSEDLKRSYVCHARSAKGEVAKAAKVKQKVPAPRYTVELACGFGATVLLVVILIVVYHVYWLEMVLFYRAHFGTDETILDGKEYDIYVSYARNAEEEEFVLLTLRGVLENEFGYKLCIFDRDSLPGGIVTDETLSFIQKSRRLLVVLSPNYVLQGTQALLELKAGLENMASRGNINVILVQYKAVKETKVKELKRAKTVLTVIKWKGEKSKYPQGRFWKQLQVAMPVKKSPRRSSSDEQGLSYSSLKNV
Text: Whole cellular lysates of different AML or CML (positive control) hematopoietic cell lines were separated by polyacrylamide gel electrophoresis and electrotransferred onto polyvinylidene difluoride membranes. Membranes were probed overnight with primary IL-1RAP #A3C3 (diluted at 1:20). Twenty micrograms of protein were electrophoresed on sodium dodecyl-sulfate polyacrylamide gels (SDS-PAGE), and then sonicated protein fractions were suspended in RIPA buffer supplemented with a protease inhibitor cocktail (complete Mini EDTA-free; Roche, Bale, Switzerland). Protein load in the western blot lane was evaluated with β-actin mAb staining (1:1000, clone AC15, #A5441, Sigma-Aldrich). Immunodetection staining was performed with a secondary polyclonal antibody sheep anti-mouse IgG (#515-035-062, Jackson). Enhanced chemiluminescence detection reagents allowed detection with a camera and Bio-1D software (Vilber-Lourmat, Collegien, France).
IL-1RAP cell surface staining of different hematopoietic AML cell lines was performed, using #A3C3 mAb and IL-1RAP murine mAb as staining comparison.
Relative Fluorescence Intensity (RFI) between IL-1RAP staining and isotype was calculated. IL-1RAP+ (KU812) or IL-1RAP-(Raji) cell lines were used as positive or negative controls respectively.

[3] = test system: healthy hematopoietic cells (HSCs, monocytes); experiment: IL-1RAP cell surface staining of healthy donor peripheral blood and bone marrow cells; format: binding
Method: (A) IL-1RAP cell surface expression on peripheral blood (left) or bone marrow (right) cells from healthy donors (n=5). SSC-A/CD45+ allowed discrimination of subpopulations as lymphocytes (SSC-A low), monocytes (CD33+), granulocytes (SSC-A high), or HSCs (CD33−/CD34+). RFI was calculated from isotype staining and provided in each window. (B) Representative (1 of 3) IL-1RAP staining of whole human cord blood cells. IL-1RAP staining is provided for whole CD34+, CD34+/CD38−, and CD34+/CD38+ HSC cord blood subpopulations. (C) IL-1RAP-positive cells among CD34+ cells in cord blood (CB, n=5) or bone marrow (BM) from healthy donors (n=5) compared to CD34+ cells from the BM (n=10) or peripheral blood (PB, n=10) from CML patients. […] Percentages were calculated using absolute cell number determined using Trucount tubes based on 5000 fluorescent-bead cytometry acquisition. (F) Left, Gating strategy and analysis for absolute count of CID AP1903-induced cell death. […] The quantification was performed after acquiring 5000 fluorescent beads. Killing efficiency was normalized to control cells (untreated cells). Cell killing was calculated as follows: % Dead cells=[1−(absolute number of viable cells in AP1903-treated cells/absolute number of viable cells in untreated cells)]×100. (D) Absolute percentage of mortality. 24 h or 48 h C0 or IL-1RAP CAR (gated on CD3+/CD19+) T cell CID exposure. […]

[4] = test system: IL-1RAP; experiment: Hybridoma screening by FACS against IL-1RAP-positive and -negative cell lines; format: binding, human; conditions: compared among the 5 subclones
Text: Briefly, BALB/c mice (5 weeks, Charles River) were immunized either by foot pad (n=3) or intraperitoneally (n=5) with a recombinant fusion protein consisting of the extra cellular part of IL-1RAP (NM_002182.2, NCBI) and the Fc-part of human IgG1 (R&D Systems, Lille, France). Lymph nodes or spleens cells and blood samples were harvested and cells were fused with the mouse myeloma cell line, then screened by FACS analysis Becton Dickinson)(, against IL-1RAP-positive (KU812) and -negative (Raji, KG1) cell lines.
Screening of hybridoma allowed to select 5 monoclonal antibodies subclones that discriminate IL-1RAP positive (KU812 or KG-1 respectively AML or Phi^+p^210 CML) from negative cell lines (Tom-1, NALM-20, Jurkat or Raji, respectively Phi+^p190 B-ALL, Phi^−B-ALL, T-ALL or Burkitt's lymphoma).
Molecular characterization was performed by Sanger sequencing of cloned PCR products amplification obtained with degenerated primers specific of the FR1 and constant regions of the heavy and light chains according to the protocol of Wang. Z. et al (J. Immunol. Methods, 2000; 233, pages 167-77). […] The monoclonal antibody subclone (#E3C3) was chosen, since it gave the highest relative fluorescence intensity (RFI) by cytometry.

B1: #A3C3: mouse anti-hIL-1RAP monoclonal antibody generated by standard hybridoma technique; VH SEQ ID No 2, VL SEQ ID No 4 (antibody, V domains shown)
VH: MGWSCIILFLVATATGVNSQVQLQQPGAELMMPGASVKVSCEASGYTFTDSWMHWVKQRPGQGLEWIGAIDPSDSYTTYNQKFTGKATLSVDESSNTAYMQLSSLTSEDSAVYYCARYYSGSNYISPFPYWGQGTLVTVSA
VL: MESQIQVFVFVFLWLSGVDGDIVMTQSHKFMSTSVGDRVTITCKASLDVSTAVAWYQQKPGQSPKLLIYSASYRYTGVPDRFTGSGSGTDFTFTISSVQAEDLAVYYCQQHYSPPFTFGSGTNLEIK
modifications: Amino acid sequence of chain H (VH) of murine scFv anti-IL-1RAP; Amino acid sequence of chain K (VL) of murine scFv anti-IL-1RAP
[1]
  presence of IL-1RAP on AML blasts, percentage: 84.27±17.4%
[2]
  staining of AML cell lines expressing IL-1RAP at the cell surface: able to stain different AML cell lines
[3]; HSCs in bone marrow from healthy donors, n=5
  RFI: < 1.2
[3]; monocyte subpopulation, weak staining in 2/5 peripheral blood and 3/5 bone marrow from healthy donors
  RFI: < 2
[4]
  relative fluorescence intensity (RFI) by cytometry: highest
